Measurements taken from article PMC3763809.

Columns and labels:
[1] = target: H3(1-132)-LEEGLG nucleosome, first Glu of the tail to Ala (Drosophila | human) (UniProt P02299); assay: ITC
[2] = target: H3(1-132)-LEEGLG nucleosome, second Glu of the tail to Ala (Drosophila | human) (UniProt P02299); assay: ITC

Chain of CENP-C central region, CENP-C(444-537) (Q03188 444-537): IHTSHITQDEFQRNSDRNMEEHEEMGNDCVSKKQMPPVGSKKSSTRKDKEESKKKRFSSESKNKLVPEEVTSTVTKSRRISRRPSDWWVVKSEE

CENP-C central region, CENP-C(444-537) (from UniProt Q03188 444-537) (domain or fragment)
factor of change of Kd against the H3(1-132)-LEEGLG nucleosome [1]: 3 fold
factor of change of Kd against the H3(1-132)-LEEGLG nucleosome [2]: 10 fold
